Results on 2 proteins are retold here after paper PMC10899789, “Flexible structural arrangement and DNA-binding properties of protein p6 from Bacillus subtillis phage φ29” (Nucleic Acids Research, 2024).

The data set deals with the molecule itself. Description: AUC; sedimentation velocity, protein alone, 48 000 rpm, 20°C, 50 mM Tris-HCl pH 7.5, 10 mM MgCl2, 50 mM NaCl; 2.5-320 μM protein; isotherms of weight-average sedimentation coefficients fitted to a monomer-dimer self-association model (SEDPHAT); dimer to monomers.

B1: p6CΔ20 (residues 1–83), C-terminal deletion mutant of φ29 protein p6 (domain or fragment)
chain: AKMMQREITKTTVNVAKMVMVDGEVQVEQLPSETFVGNLTMEQAQWRMKRKYKGEPVQVVSVEPNTEVYELPVEKFLEVATVR
For orientation: Kd means the equilibrium constant for the complex coming apart. Consider B1, for which the dissociation constant Kd was found to be 47 µM.

B2: Full-length protein p6 (wt) of Bacillus subtilis bacteriophage φ29 (natural protein, UniProt P03685 1-104, looked up)
chain: MAKMMQREITKTTVNVAKMVMVDGEVQVEQLPSETFVGNLTMEQAQWRMKRKYKGEPVQVVSVEPNTEVYELPVEKFLEVATVRVEKDEDQEEQTEAPEEQVAE
notes: numbers count on: the traditional numbering of φ29 p6, where the second residue (Ala) is position 1 because the initial Met is removed in vivo; about 11.8 kDa as printed; also called wt p6; φ29 protein p6; source: produced and purified as previously described (23)
B2: the dissociation constant (Kd) was 11.4 µM.
